Data on six molecules can be found in patent publication US9090882B2, “Compositions and methods for enhanced amino acid levels in plants conferred by lysine and/or threonine feedback insensitive aspartate kinase proteins” (priority 2008, dated 2015).

Like-named read-outs stand apart in the source and are kept apart here.

For data set [1], the system named is E. coli lysC aspartate kinase. Particulars: known from the literature; cited from earlier work.
For data set [2], the system named is X. bovienii aspartate kinase. Nature of the data set: Aspartate kinase enzyme assays and kinetic studies (colorimetric hydroxamate / coupled assay) with purified recombinant His-tagged AK. The format is biochemical, Xenorhabdus bovienii. The note with it: for Vmax Asp / Km: purified enzyme. As for the experimental part:
The chimeric plasmids containing AK or the desired mutants were transformed into E. coli BL21 (DE3) cells and transformants were selected on LB (Luria-Bertani) medium containing kanamycin (50 μg/mL). For induction of gene expression, transformants selected from single colonies were grown in 100 mL liquid LB supplemented with ampicillin or kanamycin to approximately 0.6 A600, and 0.4 mM. Isopropyl-β-thiogalactopyranoside (IPTG) (Gold Biotechnologies, St. Louis, Mo.) was added, followed by 15 hours incubation at 21° C. and 220 rpm shaking. Cells were harvested by 30 min centrifugation at 7,000×g and washed once with 20 mM Tris-HCl, 150 mM NaCl, pH 7.4. Washed cell pellets were re-suspended in 50 mM K-phosphate buffer (pH7.4, Buffer A) containing 2 mM MgCl2, 50 mM NaCl, 100 units of benzonase (Novagen, San Diego, Calif.) and protease inhibitor cocktail tablets without EDTA (1 tablet/10 mL) (Boehringer Mannheim, Germany). Cells were broken by three passages through a chilled French press cell (SLM-Aminco Spectronic Instruments), operating at 20,000 psi. The lysate was centrifuged by an ultra-centrifuge for 1 hour at 100,000×g, at 4° C. The resulting supernatant was applied to nickel+-nitrilotriacetic acid (Ni+NTA) agarose column (His-Bind resin, Qiagen) and chromatographed according to the supplier's instructions. The column was washed with 3 bed volumes of Buffer A containing 20 mM imidiazole followed by elution with 300 mM imidazole. Enzymatically active fractions of the N-terminal His-tagged […] were pooled, dialyzed against Buffer A without benzonase, and stored in 15% glycerol solution at −80° C. for use in kinetic studies. The enzyme preparation was over 95% pure as judged by Coomassie Blue-stained SDS-PAGE.
Colorimetric Hydroxamate Method. The assay mixture (final volume, 0.8 mL) contained 100 Tris-HCl, pH8.0, 40 mM hydroxylamine-KOH, pH8.0, 25 mM ATP-KOH, pH8.0, 20 mM MgCl2, L-aspartic acid, and 150 mM KCl. The reaction was initiated by addition of AK enzyme, and carried out at 37° C. for 15-30 min. The reaction was terminated by addition of 400 μL acidified ferric chloride (0.37 M FeCl3, 20% TCA, and 0.72 M HCl) and followed by the centrifugation at top speed of microcentrifuge. The formed aspartyl-hydroxamate was determined by colorimetrically at 505 nm. The biosynthetic activity was calculated based on the standard curves of L-aspartyl-hydroxamate or ε505nm.
The assay couples the conversion of ATP to ADP to the oxidation of NADH using pyruvate kinase and lactate dehydrogenase at 30° C. NADH oxidation was monitored kinetically at 340 nm. (See Wampler D E, Westhead E W. (1968), BIOCHEMISTRY 7: 1661-1670.)
Kinetic parameters were determined by measuring product formation in 100 μL reaction mixtures containing various substrate concentrations ranging from 0 to 25 mM. Controls were included for every assay. Values for Km, Vmax, and Kcat were calculated from the rate of the product formation using Michaelis-Menten equations in conjunction with the curve fitting options in the Grafit 5.0 software (Erithacus software Ltd., Horley, UK) (Table 2).

The test system of a further data set is plants. Particulars: expression in plants; Karchi et al. 1993, Galili et al. EP 0485970; cited from earlier work.
[3] abbreviates: substrate ATP, read-out: Km ATP.
Where [4] appears, read: substrate Asp, read-out: Km Asp.

B1: E. coli lysC gene product: recombinant E. coli lysC aspartate kinase, control sensitive to feedback inhibition by Lys (protein, UniProt P08660 2-449, looked up)
Lysine-sensitive …: SEIVVSKFGGTSVADFDAMNRSADIVLSDANVRLVVLSASAGITNLLVALAEGLEPGERFEKLDAIRNIQFAILERLRYPNVIREEIERLLENITVLAEAAALATSPALTDELVSHGELMSTLLFVEILRERDVQAQWFDVRKVMRTNDRFGRAEPDIAALAELAALQLLPRLNEGLVITQGFIGSENKGRTTTLGRGGSDYTAALLAEALHASRVDIWTDVPGIYTTDPRVVSAAKRIDEIAFAEAAEMATFGAKVLHPATLLPAVRSDIPVFVGSSKDPRAGGTLVCNKTENPPLFRALALRRNQTLLTLHSLNMLHSRGFLAEVFGILARHNISVDLITTSEVSVALTLDTTGSTSTGDTLLTQSLLMELSALCRVEVEEGLALVALIGNDLSKACGVGKEVFGVLEPFNIRMICYGASSHNLCFLVPGEDAEQVVQKLHSNLFE
In the case of B1, the “feedback inhibition by Lys” value in data set [1] was “sensitive to feedback inhibition by Lys”.

B2: X. bovienii AK T359I: Xenorhabdus bovienii aspartate kinase variant, Thr 359 replaced with Ile (protein, listed as Xenorhabdus bovienii)
chain: MCAVSSTYPQYVVAKFGGTSVADFDAMNHCADIILANADVRVVVLSASAGVTNLLVALATGCDNDKRKKCLKQIRDIQYAIIDRLNDVNVICEEIDRLLENIEMLSEAASLATSEALTDELVSHGEVMSTLLFVELLRQRNVNAEWFDIRRVMRTNDHFGRAEPDSLQLHISAVELLQPRLNNTVVITQGFIGREEKGRTTTLGRGGSDYTAALLGEALNLQRVDIWTDVPGIYTTDPRVAPTAKRIDKIAFDEAAEMATFGAKILHPATLLPAIRCGIPVFVGSSKDPQAGGTLVCDKTENPPLFRALALRRKQTLLTLHSLKMLHARGFLAEVFTLLLRHNISVDLITTSEVSVALILDTTGSTSTNGSLLTNALLTELSTLCRVEVEEDLALVAIIGNELSQAKGLGKEIFGTLESFNIRMISYGASSHNVCLLVPGQDAESVIQKLHQNLFKV
For the molecule B2, the “Vmax Asp” value in data set [2] came to 0.26 μmoles · min^−1 · mg^−. Also, the Km (commonly the concentration of substrate that gives half-maximal velocity) came to 1820 µM in data set [2] (setting [3]) and 2310 µM in data set [2] (setting [4]).

B3: X. bovienii AK E257K: Xenorhabdus bovienii aspartate kinase variant, Glu 257 replaced with Lys (protein, listed as Xenorhabdus bovienii)
chain: MCAVSSTYPQYVVAKFGGTSVADFDAMNHCADIILANADVRVVVLSASAGVTNLLVALATGCDNDKRKKCLKQIRDIQYAIIDRLNDVNVICEEIDRLLENIEMLSEAASLATSEALTDELVSHGEVMSTLLFVELLRQRNVNAEWFDIRRVMRTNDHFGRAEPDSLQLHISAVELLQPRLNNTVVITQGFIGREEKGRTTTLGRGGSDYTAALLGEALNLQRVDIWTDVPGIYTTDPRVAPTAKRIDKIAFDEAAKMATFGAKILHPATLLPAIRCGIPVFVGSSKDPQAGGTLVCDKTENPPLFRALALRRKQTLLTLHSLKMLHARGFLAEVFTLLLRHNISVDLITTSEVSVALTLDTTGSTSTNGSLLTNALLTELSTLCRVEVEEDLALVAIIGNELSQAKGLGKEIFGTLESFNIRMISYGASSHNVCLLVPGQDAESVIQKLHQNLFKV
Turning to B3, in data set [2], the “Vmax Asp” value was 0.20 μmoles · min^−1 · mg^−. Moreover, the Km in data set [2] (setting [3]) turned out to be 1890 µM; in data set [2] (setting [4]) it was 3060 µM.

B4: X. bovienii AK E257K/T359I: Xenorhabdus bovienii aspartate kinase double variant E257K/T359I (protein, listed as Xenorhabdus bovienii)
chain: MCAVSSTYPQYVVAKFGGTSVADFDAMNHCADIILANADVRVVVLSASAGVTNLLVALATGCDNDKRKKCLKQIRDIQYAIIDRLNDVNVICEEIDRLLENIEMLSEAASLATSEALTDELVSHGEVMSTLLFVELLRQRNVNAEWFDIRRVMRTNDHFGRAEPDSLQLHISAVELLQPRLNNTVVITQGFIGREEKGRTTTLGRGGSDYTAALLGEALNLQRVDIWTDVPGIYTTDPRVAPTAKRIDKIAFDEAAKMATFGAKILHPATLLPAIRCGIPVFVGSSKDPQAGGTLVCDKTENPPLFRALALRRKQTLLTLHSLKMLHARGFLAEVFTLLLRHNISVDLITTSEVSVALILDTTGSTSTNGSLLTNALLTELSTLCRVEVEEDLALVAIIGNELSQAKGLGKEIFGTLESFNIRMISYGASSHNVCLLVPGQDAESVIQKLHQNLFKV
As to B4, in data set [2], the “Vmax Asp” value is on record as 0.24 μmoles · min^−1 · mg^−. Also, the Km in data set [2] (setting [3]) worked out at 1620 µM; in data set [2] (setting [4]), 3100 µM.

B5: X. bovienii AK Wild Type: purified recombinant His-tagged wild-type Xenorhabdus bovienii aspartate kinase (encoded by SEQ ID NO: 6) (protein, listed as Xenorhabdus bovienii)
chain: MCAVSSTYPQYVVAKFGGTSVADFDAMNHCADIILANADVRVVVLSASAGVTNLLVALATGCDNDKRKKCLKQIRDIQYAIIDRLNDVNVICEEIDRLLENIEMLSEAASLATSEALTDELVSHGEVMSTLLFVELLRQRNVNAEWFDIRRVMRTNDHFGRAEPDSLQLHISAVELLQPRLNNTVVITQGFIGREEKGRTTTLGRGGSDYTAALLGEALNLQRVDIWTDVPGIYTTDPRVAPTAKRIDKIAFDEAAEMATFGAKILHPATLLPAIRCGIPVFVGSSKDPQAGGTLVCDKTENPPLFRALALRRKQTLLTLHSLKMLHARGFLAEVFTLLLRHNISVDLITTSEVSVALTLDTTGSTSTNGSLLTNALLTELSTLCRVEVEEDLALVAIIGNELSQAKGLGKEIFGTLESFNIRMISYGASSHNVCLLVPGQDAESVIQKLHQNLFKV
modifications: His tag
On to B5, for which, in data set [2] (inhibition of the purified enzyme by lysine), the IC50 (commonly the concentration needed to halve the response being measured) was 140 µM. Further, in data set [2], the “Vmax Asp” value turned out to be 0.29 μmoles · min^−1 · mg^−. The Km in data set [2] (setting [3]) stood at 2560 µM; in data set [2] (setting [4]), 2730 µM.

B6: E. coli T352I lysC gene product: E. coli feedback-insensitive (T352I) lysC aspartate kinase, control (protein, listed as Escherichia coli)
chain: MSEIVVSKFGGTSVADFDAMNRSADIVLSDANVRLVVLSASAGITNLLVALAEGLEPGERFEKLDAIRNIQFAILERLRYPNVIREEIERLLENITVLAEAAALATSPALTDELVSHGELMSTLLFVEILRERDVQAQWFDVRKVMRTNDRFGRAEPDVAALAELAALQLLPRLNDGLVITQGFIGSENKGRTTTLGRGGSDYTAALLAEALHASRVDIWTDVPGIYTTDPRVVSAAKRIDEIAFAEAAEMATFGAKVLHPATLLPAVRSDIPVFVGSSKDPRAGGTLVCNKTENPPLFRALALRRNQTLLTLHSLNMLHSRGFLAEVFGILARHNISVDLITTSEVSVALTLDTTGSTSTGDTLLTQSLLMELSALCRVEVEEGLALVALIGNDLSKACGVGKEVFGVLEPFNIRMICYGASSHNLCFLVPGEDAEQVVQKLHFNLFE
Turning to B6, in the data set on plants, the “increase in threonine content of the seed” value is 6-7%. Further, in data set [1], the “feedback inhibition by Lys” value is reported as “lysine-insensitive”.
